Assay results: article PMC12319226 (Frontiers in Bioinformatics, 2025)
Residue numbers refer to the chain shown, from its start.

Tests used:
Assay in all cases: BLI
[1] = biological target: chimeric antibody hJAR5 (mouse variable, human constant)
mAb JAR5 (mouse) (mouse) = biological target: mAb JAR5 (mouse) (mouse)
[2] = biological target: T1, Neisseria meningitidis factor H binding protein variant 3.28 (Neisseria meningitidis, fHbp variant …, strain); conditions: both partners purified
T1 construct: also called fHbp v3.28; fHbp variant 3.28
T1 chain: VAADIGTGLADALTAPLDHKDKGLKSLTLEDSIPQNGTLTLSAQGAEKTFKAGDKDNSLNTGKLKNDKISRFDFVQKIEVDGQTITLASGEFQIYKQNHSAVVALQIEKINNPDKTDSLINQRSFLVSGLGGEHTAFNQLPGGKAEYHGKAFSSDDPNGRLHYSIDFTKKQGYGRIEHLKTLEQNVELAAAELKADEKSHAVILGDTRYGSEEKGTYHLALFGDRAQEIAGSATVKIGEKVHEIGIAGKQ

[3] = biological target: T2, factor H binding protein variant 3.28 (Neisseria meningitidis, fHbp variant …); conditions: both partners purified
T2 construct: also called fHbp v3.28; v3.28 Control (0002)
T2 chain: T1 chain

[4] = biological target: T2, factor H binding protein variant 3.28; conditions: both partners purified
[5] = biological target: T3, factor H binding protein variant 1.1 (Neisseria meningitidis serogroup B …, UniProt Q9JXV4); conditions: both partners purified
T3 construct: also called fHbp v1.1; v1.1 Control (0001)

fHbp m000019 [6] = biological target: T4, fHbp m000019 (Neisseria meningitidis, fHbp v1.1 …, point mutant); conditions: both partners purified
T4 construct: also called Round 1 best mutant
T4 chain: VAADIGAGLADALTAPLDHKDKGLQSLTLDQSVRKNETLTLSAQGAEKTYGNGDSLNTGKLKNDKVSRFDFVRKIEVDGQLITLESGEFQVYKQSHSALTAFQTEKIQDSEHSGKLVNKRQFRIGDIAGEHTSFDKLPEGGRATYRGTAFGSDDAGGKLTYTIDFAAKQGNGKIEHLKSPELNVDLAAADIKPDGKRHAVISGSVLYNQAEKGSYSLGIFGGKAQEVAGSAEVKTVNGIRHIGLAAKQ

fHbp m002416 = biological target: T5, fHbp m002416 (Neisseria meningitidis, fHbp v3.28/v1.1 …, point mutant); conditions: both partners purified
T5 construct: also called fHbp 2,416; Round 2 best mutant
T5 chain: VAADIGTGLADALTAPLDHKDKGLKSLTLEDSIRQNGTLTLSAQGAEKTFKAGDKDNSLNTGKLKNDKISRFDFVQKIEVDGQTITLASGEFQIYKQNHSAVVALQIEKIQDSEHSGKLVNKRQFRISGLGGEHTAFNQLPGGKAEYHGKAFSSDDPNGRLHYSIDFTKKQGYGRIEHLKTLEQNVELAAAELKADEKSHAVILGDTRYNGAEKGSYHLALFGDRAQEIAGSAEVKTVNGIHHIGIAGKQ

[7] = biological target: T6, Neisseria meningitidis factor H binding protein variant 1.1 (Neisseria meningitidis, UniProt Q9JXV4); conditions: both partners purified
T6 construct: also called fHbp v1.1; fHbp variant 1.1

fHbp mutant 0014 = biological target: T7, fHbp mutant 0014 (Neisseria meningitidis, fHbp v1.1 mutant, point mutant); conditions: both partners purified
T7 chain: T4 chain with T38K, T40K, S42A, V72I, K74Q, K106Q, L116M, N118A, A155P, G156N

fHbp mutant 0018 = biological target: T8, fHbp mutant 0018 (Neisseria meningitidis, fHbp v1.1 mutant, point mutant); conditions: both partners purified
T8 chain: T4 chain with L116M, N118A, A155P, G156N

fHbp mutant 0012 = biological target: T9, fHbp mutant 0012 (Neisseria meningitidis, fHbp v1.1 mutant, point mutant); conditions: both partners purified
T9 chain: T4 chain with T38K, T40K, S42A, K106Q, L116M, N118A

fHbp m000019 [8] = biological target: T10, fHbp m000019 (Neisseria meningitidis, fHbp v1.1 …, point mutant); conditions: both partners purified
T10 chain: T4 chain

fHbp mutant 0015 = biological target: T11, fHbp mutant 0015 (Neisseria meningitidis, fHbp v1.1 mutant, point mutant); conditions: both partners purified
T11 chain: T4 chain with T38K, T40K, S42A, A155P, G156N

fHbp mutant 0016 = biological target: T12, fHbp mutant 0016 (Neisseria meningitidis, fHbp v1.1 mutant, point mutant); conditions: both partners purified
T12 chain: T4 chain with V72I, K74Q, E76R, V77S, A155P, G156N

fHbp mutant 0017 = biological target: T13, fHbp mutant 0017 (Neisseria meningitidis, fHbp v1.1 mutant, point mutant); conditions: both partners purified
T13 chain: T4 chain with K106Q, A155P, G156N

fHbp CC1 (natural protein) showed a Kd [1] of 3.86 nM, a koff [1] of 0.00268 s⁻¹ and a kon [1] of 693000 M⁻¹ s⁻¹.

With fHbp CC5 (natural protein) the Kd [1] was 6.49 nM, the koff [1] was 0.00446 s⁻¹ and the kon [1] was 687000 M⁻¹ s⁻¹.

Work on fHbp CC8 (natural protein) yielded a Kd [1] of 3.58 nM, a koff [1] of 0.002 s⁻¹ and a kon [1] of 558000 M⁻¹ s⁻¹.

Work on fHbp CC4 (natural protein) yielded a Kd [1] of 6.92 nM, a koff [1] of 0.00561 s⁻¹ and a kon [1] of 811000 M⁻¹ s⁻¹.

For fHbp CC2 (natural protein), the Kd [1] was 0.425 nM, the koff [1] was 0.000266 s⁻¹ and the kon [1] was 625000 M⁻¹ s⁻¹.

Molecule “fHbp m000006 (from UniProt E6MV22 20-274) (natural protein)” has a Kd (mAb JAR5 (mouse) (mouse)) of less than 1 pM, a koff (mAb JAR5 (mouse) (mouse)) of less than 1e-07 s⁻¹ and a kon (mAb JAR5 (mouse) (mouse)) of 642000 M⁻¹ s⁻¹. For the same molecule, the Kd [1] was 0.922 nM, the koff [1] was 0.000499 s⁻¹ and the kon [1] was 541000 M⁻¹ s⁻¹.

With fHbp CC3 (natural protein) the Kd [1] was 1.2 nM, the koff [1] was 0.00241 s⁻¹ and the kon [1] was 2.01e+06 M⁻¹ s⁻¹.

fHbp CC9 (natural protein) was tested, and the Kd [1] was 7.66 nM, the koff [1] was 0.00118 s⁻¹ and the kon [1] was 154000 M⁻¹ s⁻¹.

B1: human mAb 1A12 (antibody, V domains shown)
VH: EVQLVQSGAELKKPGESLKISCKASGYTFTNYWVVWVRQMPGEGLEWMGSIHPRDSDARYSLSFEGRVTFSVDKSTTTAYLQWSSLKVSDSAIYYCARLSQVSGWSPWVGPWGQGTLVTVSS
VL: DIVMTQSPSSLSASVGDRVTITCRASQSISVSLNWYQQKPGKAPKVLIYAASRLQSGIPSRFSGSGSGSHFTLTISSLQPEDFATYYCQETYSDLMYTFGQGTKVEIK
notes: source: Expi293, transient transfection, purified (MabSelect SuRe, SEC)
With B1 the Kd [2] was 7 to 20 nM.

B2: mAb 1A12 (human) (antibody, V domains shown)
VH: B1 VH
VL: B1 VL
notes: source: Expi293, purified (MabSelect SuRe, SEC); copies: 2 + 2
B2 showed a Kd [3] of 20.4 nM, a Kd [4] of 65.9 nM and a Kd [5] of less than 1 pM.

B3: mouse mAb 12C1 (antibody, V domains shown)
VH: QVQLQESGPELVKPGASVKISCKASGYSFSDYNMSWVKQSNGKSLEWIGIIDPKYGTINYNQKFKGKATLTVDQASSTAYMQLNSLTSEDSAVYYCVRDYYGSSYFDYWGQGTTLTVSS
VL: DIVLTQSPSSIYASLGERVTLTCKASQDIHNYLNWFQQKPGKSPKTLIYRANRLVDGVPSRFSGGGSGQDYSLTISSLEFEDIGIYYCLQYDEFPPTFGGGTRLEIK
notes: also called mouse 12C1 mAb; source: Expi293, transient transfection, purified (MabSelect SuRe, SEC)
B3 was tested, and the Kd (fHbp m000019 [6]) was 0.037 nM.

B4: chimeric antibody h12C1 (antibody, V domains shown)
VH: B3 VH
VL: B3 VL
notes: also called humanized 12C1 mAb; source: Expi293, transient transfection, purified (MabSelect SuRe, SEC)
In the case of B4, the Kd (fHbp m002416) is reported as 0.293 nM and the Kd [7] is reported as 0.1 to 0.8 nM.

B5: mAb 12C1 (mouse) (antibody, V domains shown)
VH: B3 VH
VL: B3 VL
notes: as for B2
In the case of B5, the Kd (fHbp mutant 0014) is reported as less than 0.001 nM, the koff (fHbp mutant 0014) is reported as less than 1e-07 s⁻¹ and the kon (fHbp mutant 0014) is reported as 809000 ± 12500 M⁻¹ s⁻¹. For the same molecule, the Kd (fHbp mutant 0018) was less than 0.001 nM, the koff (fHbp mutant 0018) was less than 1e-07 s⁻¹ and the kon (fHbp mutant 0018) was 397000 ± 13200 M⁻¹ s⁻¹. For the same molecule, the Kd [5] was less than 1 pM, the koff [5] was less than 1e-07 s⁻¹ and the kon [5] was 796000 ± 15600 M⁻¹ s⁻¹. The Kd (fHbp mutant 0012) was less than 0.001 nM, the koff (fHbp mutant 0012) was less than 1e-07 s⁻¹ and the kon (fHbp mutant 0012) was 599000 ± 21400 M⁻¹ s⁻¹. It also gave a koff (fHbp m000019 [8]) of 2.2e-05 s⁻¹, a kon (fHbp m000019 [8]) of 585000 ± 6100 M⁻¹ s⁻¹ and a Kd (fHbp mutant 0015) of less than 0.001 nM. The koff (fHbp mutant 0015) was less than 1e-07 s⁻¹, the kon (fHbp mutant 0015) was 386000 ± 44100 M⁻¹ s⁻¹ and the Kd (fHbp mutant 0016) was less than 1 pM. For the same molecule, the koff (fHbp mutant 0016) was less than 1e-07 s⁻¹, the kon (fHbp mutant 0016) was 101000 ± 20700 M⁻¹ s⁻¹ and the Kd (fHbp mutant 0017) was less than 0.001 nM. The koff (fHbp mutant 0017) was less than 1e-07 s⁻¹ and the kon (fHbp mutant 0017) was 359000 ± 10900 M⁻¹ s⁻¹.

B6: mouse mAb JAR5 (antibody, V domains shown)
VH: QVQMQQPGAELVKPGASVKLSCKASGYTFISYWMHWVKQRPGRGLEWIGRIAPDTGIIYYNEKFKNKATLTVDTPSSTAYMQLNSLTSEDSAVYYCARYLKYDGSTYRFDYWGQGTTLTVSS
VL: DIVMTQAAPSVPVTPGESVSISCRSSKSLLHSNGNTYLFWFLQRPGQSPQLLIYRMSNLASGVPDRFSGSGSGTSFTLRISRVEAEDVGVYYCMQHLEYPYTFGGGTKLEIK
notes: also called mouse JAR5 mAb; source: Expi293, transient transfection, purified (MabSelect SuRe, SEC)
Molecule B6 has a Kd (fHbp m000019 [6]) of 0.254 nM.

B7: mAb JAR5 (mouse) (antibody, V domains shown)
VH: B6 VH
VL: B6 VL
notes: as for B2
For B7, the Kd (fHbp mutant 0014) was 0.211 nM, the Kd (fHbp mutant 0018) was 0.404 nM and the Kd (fHbp mutant 0012) was 0.418 nM. For the same molecule, the Kd (fHbp mutant 0015) was 0.209 nM and the Kd (fHbp mutant 0017) was 0.0297 nM.

B8: chimeric antibody hJAR5 (antibody, V domains shown)
VH: B6 VH
VL: B6 VL
With B8 the Kd (fHbp m002416) was 0.631 nM.
